The text below walks through data of PMC10397247.

Experiment in all cases: two-hybrid library CCNG1;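 also: natural log of median RNA to DNA barcode read ratio; higher means stronger binding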
Assay [1] concerns the target T1, 4H2503-bA.
T1 chain: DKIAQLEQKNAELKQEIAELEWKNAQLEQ

In assay [2] the target is T2, 4H2143-bA.
T2 chain: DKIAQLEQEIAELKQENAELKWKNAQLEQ

For assay [3], the target named is T3, 4H348-bA.
T3 chain: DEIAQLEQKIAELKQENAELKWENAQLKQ

For assay [4], the target named is T4, 4H2915-bA.
T4 chain: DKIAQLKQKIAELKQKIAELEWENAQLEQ

Assay [5] deals with T5, 4H741-bA.
T5 chain: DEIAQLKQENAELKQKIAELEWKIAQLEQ

Assay [6] deals with T6, 4H40-bA.
T6 chain: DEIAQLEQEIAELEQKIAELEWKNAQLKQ

For assay [7], the target named is T7, 4H2223-bA.
T7 chain: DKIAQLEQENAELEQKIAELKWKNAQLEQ

In assay [8] the target is T8, 4H3277-bA.
T8 chain: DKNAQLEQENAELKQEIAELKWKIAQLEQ

For assay [9], the target named is T9, 4H2839-bA.
T9 chain: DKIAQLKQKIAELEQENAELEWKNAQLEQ

Assay [10] has as its target T10, 4H2473-bA.
T10 chain: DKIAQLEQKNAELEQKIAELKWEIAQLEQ

Assay [11] addresses T11, 4H3057-bA.
T11 chain: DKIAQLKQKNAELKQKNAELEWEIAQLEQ

Assay [12] has as its target T12, 4H2717-bA.
T12 chain: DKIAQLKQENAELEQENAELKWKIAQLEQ

The target in assay [13] is T13, 4H182-bA.
T13 chain: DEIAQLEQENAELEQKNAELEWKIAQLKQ

Assay [14] concerns the target T14, 4H2692-bA.
T14 chain: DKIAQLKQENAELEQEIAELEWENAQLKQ

Assay [15] addresses T15, 4H477-bA.
T15 chain: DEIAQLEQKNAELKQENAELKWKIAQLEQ

Assay [16] concerns the target T16, 4H2438-bA.
T16 chain: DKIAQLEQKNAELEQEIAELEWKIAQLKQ

For assay [17], the target named is T17, 4H2588-bA.
T17 chain: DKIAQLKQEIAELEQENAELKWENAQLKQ

For assay [18], the target named is T18, 4H319-bA.
T18 chain: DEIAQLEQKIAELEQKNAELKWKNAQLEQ

The target of assay [19] is T19, 4H2134-bA.
T19 chain: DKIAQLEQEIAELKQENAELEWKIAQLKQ

Assay [20] has as its target T20, 4H492-bA.
T20 chain: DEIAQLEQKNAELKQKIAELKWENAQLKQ

Assay [21] addresses T21, 4H932-bH.
T21 chain: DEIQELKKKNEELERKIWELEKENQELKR

In assay [22] the target is T22, 4H949-bH.
T22 chain: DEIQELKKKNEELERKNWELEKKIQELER

Assay [23] deals with T23, O1-bP.
T23 chain: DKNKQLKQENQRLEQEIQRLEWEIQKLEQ

The target in assay [24] is T24, 4H491-bH.
T24 chain: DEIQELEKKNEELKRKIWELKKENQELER

In assay [25] the target is T25, 4H2937-bH.
T25 chain: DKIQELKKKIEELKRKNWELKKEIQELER

For assay [26], the target named is T26, 4H2944-bH.
T26 chain: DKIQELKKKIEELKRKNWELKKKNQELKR

Assay [27] addresses T27, 4H2883-bH.
T27 chain: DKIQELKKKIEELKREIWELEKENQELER

Assay [28] concerns the target T28, 4H48-bH.
T28 chain: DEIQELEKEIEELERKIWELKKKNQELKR

The target of assay [29] is T29, 4H2696-bH.
T29 chain: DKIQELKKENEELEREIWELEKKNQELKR

The target of assay [30] is T30, 4H342-bH.
T30 chain: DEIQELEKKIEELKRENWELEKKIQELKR

Assay [31] addresses T31, 4H3189-bA.
T31 chain: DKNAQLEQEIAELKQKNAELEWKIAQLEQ

Assay [32] addresses T32, 4H1446-bA.
T32 chain: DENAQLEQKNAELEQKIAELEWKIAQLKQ

In assay [33] the target is T33, 4H462-bA.
T33 chain: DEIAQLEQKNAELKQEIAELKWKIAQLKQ

For assay [34], the target named is T34, 4H2610-bA.
T34 chain: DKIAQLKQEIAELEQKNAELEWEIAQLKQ

Assay [35] concerns the target T35, 4H797-bA.
T35 chain: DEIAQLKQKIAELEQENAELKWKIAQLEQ

Assay [36] deals with T36, 4H967-bA.
T36 chain: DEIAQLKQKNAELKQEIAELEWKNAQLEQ

The target of assay [37] is T37, 4H953-bA.
T37 chain: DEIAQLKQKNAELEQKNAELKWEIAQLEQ

The target of assay [38] is T38, 4H2667-bA.
T38 chain: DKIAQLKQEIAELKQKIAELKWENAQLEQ

The target in assay [39] is T39, 4H1845-bA.
T39 chain: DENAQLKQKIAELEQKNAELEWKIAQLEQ

Assay [40] addresses T40, 4H2576-bA.
T40 chain: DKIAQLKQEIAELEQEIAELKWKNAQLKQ

Assay [41] concerns the target T41, 4H346-bH.
T41 chain: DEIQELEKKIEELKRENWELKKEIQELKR

In assay [42] the target is T42, 4H3843-bA.
T42 chain: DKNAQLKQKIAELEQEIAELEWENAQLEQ

Assay [43] concerns the target T43, 4H568-bA.
T43 chain: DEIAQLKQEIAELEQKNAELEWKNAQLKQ

For assay [44], the target named is T44, 4H918-bA.
T44 chain: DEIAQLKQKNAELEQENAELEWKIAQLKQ

Assay [45] concerns the target T45, 4H1369-bA.
T45 chain: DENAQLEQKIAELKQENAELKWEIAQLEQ

Assay [46] deals with T46, 4H687-bA.
T46 chain: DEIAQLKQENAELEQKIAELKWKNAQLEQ

The target in assay [47] is T47, 4H370-bA.
T47 chain: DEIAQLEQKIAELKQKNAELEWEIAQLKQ

Assay [48] addresses T48, 4H1328-bA.
T48 chain: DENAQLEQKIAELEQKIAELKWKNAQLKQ

Assay [49] concerns the target T49, 4H331-bA.
T49 chain: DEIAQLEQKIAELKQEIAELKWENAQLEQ

Assay [50] addresses T50, 4H2697-bA.
T50 chain: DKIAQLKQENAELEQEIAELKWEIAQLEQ

In assay [51] the target is T51, 4H3606-bA.
T51 chain: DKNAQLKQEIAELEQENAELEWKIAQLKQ

Assay [52] deals with T52, 4H72-bA.
T52 chain: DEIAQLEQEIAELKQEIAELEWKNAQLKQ

In assay [53] the target is T53, 4H607-bA.
T53 chain: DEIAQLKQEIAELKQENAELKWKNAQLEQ

The target of assay [54] is T54, 4H3782-bA.
T54 chain: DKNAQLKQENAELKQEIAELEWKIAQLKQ

Assay [55] has as its target T55, 4H883-bA.
T55 chain: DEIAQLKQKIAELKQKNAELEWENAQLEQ

For assay [56], the target named is T56, 4H4001-bA.
T56 chain: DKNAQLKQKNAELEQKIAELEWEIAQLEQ

B1: 4H182-bA (peptide)
chain: DEIAQLEQENAELEQKNAELEWKIAQLKQ
As to B1, the interaction score in [1] was -0.357; in [2], -0.647; in assay [3] it was -1.35; in [4] it was 0.668; in assay [5], -0.573; in assay [6], -1.06. For the same molecule, the interaction score in assay [7] was -0.693; in [8] it was -0.0929; in assay [9], 0.49; in [10], -0.132; in [11] it was 2.13; in [12] it was 0.261. For the same molecule, the interaction score in assay [13] was -0.0793; in assay [14], 0.136; in [15], -0.804; in [16], -0.622; in assay [17], 0.365; in [18] it was -0.41. In addition, the interaction score is -0.497 in assay [19] and -0.651 in [20].

B2: 4H932-bH (peptide)
chain: DEIQELKKKNEELERKIWELEKENQELKR
Turning to B2, the interaction score in [21] is -0.509; in [22], -0.517; in [23], -1.96.

B3: 4H2696-bH (peptide)
chain: DKIQELKKENEELEREIWELEKKNQELKR
For the molecule B3, the interaction score in assay [24] is 1.73; in assay [25], 1.47; in [26], -0.0809; in [27], 1.5; in assay [28], 1.04; in assay [29], 0.576. In addition, the interaction score in [30] turned out to be 0.972.

B4: 4H1328-bA (peptide)
chain: DENAQLEQKIAELEQKIAELKWKNAQLKQ
Consider B4, for which the interaction score in assay [31] was -0.907; in [32], 0.372; in [33] it was -0.405; in assay [34], -0.633; in assay [35] it was -1.68; in assay [36], -0.292. In addition, the interaction score is -0.977 in assay [37]; 0.432 in assay [38]; -0.257 in assay [39]; 1.95 in assay [40]; 0.114 in assay [41]; 1.8 in assay [42]. Moreover, the interaction score in [43] was -0.0125; in [44] it was -0.412; in assay [45], -0.903; in assay [46], -0.983; in assay [47], -0.958; in assay [48], 1.62. The interaction score in [49] is 1.02; in [50], 0.429; in assay [51], 0.221; in [52], 1.25; in assay [53], -0.918; in assay [54] it was 0.142. In addition, the interaction score is -0.916 in assay [55] and 1.48 in assay [56].
